Results from US20260285971 (published 2026).
Numbering of substitutions follows the chain as printed.

B1: Lab02-huFc (antibody, V domains shown)
VH: DVQLQASGGGSVQAGESLRLSCAASGYLYMGWFRQAPGKEREGVAAIVTQSGLTGYADSVKGRFTISQDNAENRIYLQMNSLKPEDTAMYYCAAKSRLGWTLSPSAYNYWGRGTQVTVSS
B2: HAB02-H2 (antibody, V domains shown)
VH: EVQLVESGGGVVQPGRSLRLSCAASGYLYMGWFRQAPGKEREGVAVIVTQSGLTYYADSVKGRFTISQDNSKNRLYLQMNSLRAEDTAVYYCAAKSRLGWTLSPSAYNYWGRGTLVTVSS
B3: HAB02-H4 (antibody, V domains shown)
VH: B2 VH with V46A, Y55G
B4: HAB02-H6 (antibody, V domains shown)
VH: B2 VH with E1D, V46A, Y55G
B5: HAB02-H5 (antibody, V domains shown)
VH: B2 VH with V46A, Y55G, S71A
B6: HAB02-H7 (antibody, V domains shown)
VH: B2 VH with V5Q, E6A, V46A, Y55G
B7: HAB02-H8 (antibody, V domains shown)
VH: B2 VH with V46A, Y55G, L75I
B8: HAB02-H1 (antibody, V domains shown)
VH: B2 VH with Q68R
B9: HAB02-H3 (antibody, V domains shown)
VH: B2 VH with V46A
B10: HAB04-H7 (antibody, V domains shown)
VH: EVQLVASGGGLVQPGGSLRLSCAASGFPYSTSRMGWFRQAPGKEREGVATIVPGTGYTYYVDSVKGRFTISQDNAKNSLYLQMNSLRAEDTAVYYCAAGDRRLLLNLLAPADYFYWGQGTMVTVSS
B11: HAB04-H8 (antibody, V domains shown)
VH: B10 VH with V5Q, A6E, A23V
B12: HAB04-H14 (antibody, V domains shown)
VH: B10 VH with V61A
B13: HAB04-H3 (antibody, V domains shown)
VH: B10 VH with A6E
B14: HAB04-H5 (antibody, V domains shown)
VH: B10 VH with A6E, M34V, L79V
B15: HAB04-H4 (antibody, V domains shown)
VH: B10 VH with A6E, N74S
B16: HAB04-H10 (antibody, V domains shown)
VH: B10 VH with N74S
B17: Lab04-huFc (antibody, V domains shown)
VH: EVQLQASGGGSVQAGGSLRLSCVASGFPYSTSRVGWFRQAPGKEREGVATIVPGTGYTYYADSVKGRFTISQDSAKNTVYLQMNSLKPEDTAVYYCAAGDRRLLLNLLAPADYFYWGQGTQVTVSS
B18: Lab03-huFc (antibody, V domains shown)
VH: DVQLQASGGGSVQAGGSLRLSCAASGDTANCIGWFRQAPGKGREGVAAIYTGLGNTYYANSAKGRFTIAQDNAKNTVYLQMNSLKPEDSAMYYCAAGGILGRFCSRYFGQGTQVTVSS
B19: HAB03-H11 (antibody, V domains shown)
VH: DVQLVESGGGLVQPGGSLRLSCAASGDTANCIGWFRQAPGKGREGVAAIYTGLGNTYYANSAKGRFTISQDNAKNSVYLQMNSLRAEDTAVYYCAAGGILGRFCSRYFGQGTMVTVSS
B20: HAB03-H12 (antibody, V domains shown)
VH: B19 VH with D1E, E6A
B21: HAB03-H8 (antibody, V domains shown)
VH: B19 VH with D1E, R43L
B22: HAB03-H9 (antibody, V domains shown)
VH: B19 VH with D1E, N30S
B23: HAB03-H10 (antibody, V domains shown)
VH: B19 VH with D1E, Q70R
B24: HAB03-H5 (antibody, V domains shown)
VH: B19 VH with D1E
B25: Lab01-huFc (antibody, V domains shown)
VH: EVQLQASGGGSVQAGGSRRLSCVASGYAGGIAYMAWFRQTPGKGREGVALIATSGTTSYANSVKGRFTIFRDGADNTVYLEMSSLKPEDTATYYCAAKSRLGWPGLETSQFKYWGQGTQVTVSS
B26: HAB01-H1 (antibody, V domains shown)
VH: EVQLVESGGGLVQPGGSLRLSCAASGYAGGIAYMAWFRQAPGKGREGVANIATSGTTYYVDSVKGRFTISRDGAKNSLYLQMNSLRAEDTAVYYCAAKSRLGWPGLETSQFKYWGQGTMVTVSS
B27: HAB01-H3 (antibody, V domains shown)
VH: B26 VH with N50L, Y58S
B28: HAB01-H8 (antibody, V domains shown)
VH: B26 VH with N50L, Y58S, K75D, L78V
B29: HAB01-H6 (antibody, V domains shown)
VH: B26 VH with E6A, N50L, Y58S, L78V

Target: T1, human GPRC5D (human)
T1 chain: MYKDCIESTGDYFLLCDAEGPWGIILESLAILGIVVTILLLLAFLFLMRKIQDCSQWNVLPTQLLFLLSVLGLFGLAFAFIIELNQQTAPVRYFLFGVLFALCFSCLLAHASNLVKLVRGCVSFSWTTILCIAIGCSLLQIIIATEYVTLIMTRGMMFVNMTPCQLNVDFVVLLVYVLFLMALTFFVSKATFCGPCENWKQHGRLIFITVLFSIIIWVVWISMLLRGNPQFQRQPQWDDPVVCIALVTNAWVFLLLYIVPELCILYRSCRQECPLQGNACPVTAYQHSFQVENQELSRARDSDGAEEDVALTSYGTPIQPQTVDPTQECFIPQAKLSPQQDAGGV
Assay: FACS NCI-H929

Binder	EC50 [nM]
B1	0.672
B2	0.299
B3	0.438
B4	0.317
B5	0.501
B6	0.22
B7	0.401
B8	0.312
B9	0.51

Target: T1, human GPRC5D
Assay: FACS RPMI-8226

Binder	EC50 [nM]
B1	1.75
B2	3.56
B3	47.9
B4	10.2
B5	1.76
B6	0.257
B7	1.5
B8	3.72
B9	1.88

Target: T1, human GPRC5D
Assay: ELISA

Binder	EC50 [nM]
B10	0.0533
B11	0.0311
B12	0.0349
B13	0.034
B14	0.0333
B15	0.0382
B16	0.0481
B17	0.0353

Target: T1, human GPRC5D
Assay: ELISA
Remark: another data set of the same source

Binder	EC50 [nM]
B1	0.053
B2	0.0381
B3	0.0395
B4	0.0362
B5	0.0406
B6	0.0396
B7	0.0409
B8	0.0405
B9	0.042

Target: T1, human GPRC5D
Assay: FACS molp-8

Binder	EC50 [nM]
B18	0.599
B19	0.812
B20	0.642
B21	1.22
B22	0.849
B23	0.762
B24	0.738

Target: T1, human GPRC5D
Assay: FACS molp-8
Remark: another data set of the same source

Binder	EC50 [nM]
B10	2.67
B11	1.74
B12	1.35
B13	3.04
B14	2.8
B15	2.71
B16	4.3
B17	1.97

Target: T1, human GPRC5D
Assay: FACS RPMI-8226
Remark: another data set of the same source

Binder	EC50 [nM]
B10	2.42
B11	1.68
B12	1.64
B13	2.81
B14	2.05
B15	2.29
B16	3.05
B17	2.49

Target: T1, human GPRC5D
Assay: ELISA
Remark: another data set of the same source

Binder	EC50 [nM]
B25	0.0182
B26	0.023
B27	0.0259
B28	0.0336
B29	0.0178

Target: T1, human GPRC5D
Assay: FACS NCI-H929
Remark: another data set of the same source

Binder	EC50 [nM]
B25	0.653
B26	1.63
B27	1.02
B28	1.41
B29	0.666

Target: T1, human GPRC5D
Assay: FACS NCI-H929
Remark: another data set of the same source

Binder	EC50 [nM]
B18	0.909
B19	1.12
B20	0.808
B21	1.41
B22	0.895
B23	0.944
B24	0.892

Target: T1, human GPRC5D
Assay: FACS NCI-H929
Remark: another data set of the same source

Binder	EC50 [nM]
B10	1.34
B11	1.28
B12	0.711
B13	1.35
B14	1.02
B15	1.41
B16	1.21
B17	0.915

Target: T1, human GPRC5D
Assay: FACS molp-8
Remark: another data set of the same source

Binder	EC50 [nM]
B1	0.875
B2	0.742
B3	1.3
B4	1.54
B5	1.06
B6	0.547
B7	1.06
B8	0.602
B9	1.6

Target: T1, human GPRC5D
Assay: ELISA
Remark: another data set of the same source

Binder	EC50 [nM]
B18	0.0319
B19	0.0338
B20	0.0307
B21	0.0462
B22	0.0326
B23	0.0324
B24	0.0353

Target: T1, human GPRC5D
Assay: FACS RPMI-8226
Remark: another data set of the same source

Binder	EC50 [nM]
B18	0.603
B19	0.627
B20	51.1
B21	0.66
B22	0.777
B23	1.43
B24	41.5

Target: T1, human GPRC5D
Assay: FACS RPMI-8226
Remark: another data set of the same source

Binder	EC50 [nM]
B25	2.08
B26	103
B27	36
B28	1.77
B29	25.7

Target: T1, human GPRC5D
Assay: FACS molp-8
Remark: another data set of the same source

Binder	EC50 [nM]
B25	0.625
B26	3.3
B27	1.37
B28	1.24
B29	0.755
